± gives the uncertainty stated by the source.
B1: Gamma-crystallin C, residues 91 to 170; numbered along this chain, P07315 (parent)
chain: RLYEREDHKGLMMELSEDCPSIQDRFHLSEIRSLHVLEGCWVLYELPNYRGRQYLLRPQEYRRCQDWGAMDAKAGSLRRV

Variants of: B1
Assay: abundance fitness (aPCA) (normalised: wild type 0, dead -1); higher = more abundant; growth selection in yeast, the domain comes from the species named
Settings: Homo sapiens
R32G showed an abundance fitness of 0.082 ± 0.061. R32I gave an abundance fitness of -0.587 ± 0.35. For R32C, the abundance fitness was -0.178 ± 0.1. Work on R32M yielded an abundance fitness of -0.412 ± 0.23. L46D showed an abundance fitness of -0.43 ± 0.21. Work on L46A yielded an abundance fitness of 0.023 ± 0.1. With E38M the abundance fitness was -0.222 ± 0.097. In the case of E38I, the abundance fitness is reported as -0.711 ± 0.25. E38C gave an abundance fitness of -0.242 ± 0.077. In the case of R62Q, the abundance fitness is reported as -0.1 ± 0.11. In the case of R62W, the abundance fitness is reported as -0.073 ± 0.11. For R62M, the abundance fitness was 0.195 ± 0.23. For E30V, the abundance fitness was -0.275 ± 0.037. Work on E30G yielded an abundance fitness of -0.273 ± 0.048. Work on E30K yielded an abundance fitness of -0.13 ± 0.065. For E30S, the abundance fitness was -0.222 ± 0.048. L56K showed an abundance fitness of -0.806 ± 0.44. Work on L56G yielded an abundance fitness of -0.928 ± 0.11. In the case of E17Q, the abundance fitness is reported as -0.089 ± 0.073. For E17P, the abundance fitness was -0.91 ± 0.32. E17I gave an abundance fitness of -0.533 ± 0.22. E60S showed an abundance fitness of -0.018 ± 0.067. Variant E60L has an abundance fitness of -0.001 ± 0.047. E60D showed an abundance fitness of -0.235 ± 0.19. E60K gave an abundance fitness of -0.197 ± 0.18. Variant E60V has an abundance fitness of -0.117 ± 0.09. For V36S, the abundance fitness was -0.969 ± 0.35. With V36Q the abundance fitness was -0.713 ± 0.23. In the case of V36E, the abundance fitness is reported as -0.88 ± 0.36. With A69G the abundance fitness was -0.196 ± 0.089. Work on A69T yielded an abundance fitness of -0.361 ± 0.2. In the case of A69W, the abundance fitness is reported as -0.668 ± 0.4. For P47Q, the abundance fitness was -0.348 ± 0.13. Work on P47W yielded an abundance fitness of -0.832 ± 0.27. Variant P47V has an abundance fitness of -0.591 ± 0.13. In the case of D18M, the abundance fitness is reported as -0.496 ± 0.16. In the case of D18P, the abundance fitness is reported as -0.66 ± 0.29. Variant D18K has an abundance fitness of -0.934 ± 0.29. With D18R the abundance fitness was -0.938 ± 0.15. For D18I, the abundance fitness was -0.758 ± 0.23. With R57L the abundance fitness was -0.24 ± 0.12. With R57V the abundance fitness was -0.14 ± 0.051. E4W showed an abundance fitness of -0.78 ± 0.19. E4T gave an abundance fitness of -0.123 ± 0.094. For E4F, the abundance fitness was -0.347 ± 0.2. E4K gave an abundance fitness of -0.375 ± 0.14. For M70I, the abundance fitness was 0.097 ± 0.23. M70T showed an abundance fitness of -0.06 ± 0.079. For Y49W, the abundance fitness was -0.551 ± 0.13. Variant Y49R has an abundance fitness of -0.9 ± 0.2. Y49C gave an abundance fitness of -0.914 ± 0.29. With Y49Q the abundance fitness was -0.85 ± 0.36. K9E gave an abundance fitness of 0.017 ± 0.073. For I22W, the abundance fitness was -0.801 ± 0.17. Work on D66Y yielded an abundance fitness of -0.603 ± 0.27. Work on D66M yielded an abundance fitness of -0.47 ± 0.13. D66R gave an abundance fitness of -0.857 ± 0.14. D66A showed an abundance fitness of -0.313 ± 0.12. N48S gave an abundance fitness of -0.238 ± 0.069. With N48Q the abundance fitness was -0.017 ± 0.12. Y61P gave an abundance fitness of -1.07 ± 0.2. Variant Y61H has an abundance fitness of -0.919 ± 0.32. Work on L34W yielded an abundance fitness of -0.486 ± 0.054. L34I gave an abundance fitness of 0.056 ± 0.077. Variant L34F has an abundance fitness of -0.097 ± 0.097. S33H gave an abundance fitness of -0.933 ± 0.5. Variant S33R has an abundance fitness of -0.9 ± 0.12. For S33V, the abundance fitness was -1.01 ± 0.26. G10R gave an abundance fitness of -0.931 ± 0.14. In the case of L77F, the abundance fitness is reported as -0.304 ± 0.15. With L28Q the abundance fitness was -0.337 ± 0.13. Variant L28R has an abundance fitness of -0.05 ± 0.06. In the case of L28F, the abundance fitness is reported as -0.335 ± 0.18. L28Y gave an abundance fitness of -0.252 ± 0.14. In the case of L28T, the abundance fitness is reported as -0.601 ± 0.22. In the case of L28S, the abundance fitness is reported as -0.251 ± 0.072. K73C gave an abundance fitness of -0.175 ± 0.17. Variant K73Y has an abundance fitness of -0.295 ± 0.21. In the case of A72P, the abundance fitness is reported as -0.007 ± 0.063. D71T gave an abundance fitness of 0.024 ± 0.12. Work on D71L yielded an abundance fitness of -0.5 ± 0.078. R25Y gave an abundance fitness of -0.463 ± 0.15. Work on R25A yielded an abundance fitness of -0.086 ± 0.062. Variant R25V has an abundance fitness of -0.025 ± 0.058. Work on R25Q yielded an abundance fitness of -0.179 ± 0.1. For P58R, the abundance fitness was -0.453 ± 0.067. For P58I, the abundance fitness was -0.623 ± 0.17. For H27I, the abundance fitness was -0.739 ± 0.4. For H27K, the abundance fitness was -0.137 ± 0.13. For H27W, the abundance fitness was -0.441 ± 0.068. For H27L, the abundance fitness was -0.18 ± 0.056. For Q59K, the abundance fitness was 0.135 ± 0.11. Work on Q59V yielded an abundance fitness of -0.266 ± 0.1. Y3P gave an abundance fitness of -0.807 ± 0.38. Y3W showed an abundance fitness of -0.324 ± 0.095. Variant Y3V has an abundance fitness of -0.949 ± 0.18. With Y3N the abundance fitness was -0.633 ± 0.43. Work on L37H yielded an abundance fitness of -0.351 ± 0.12. With L37M the abundance fitness was -0.158 ± 0.087. For L37V, the abundance fitness was -0.033 ± 0.06. In the case of L15V, the abundance fitness is reported as 0.037 ± 0.057. With L15E the abundance fitness was -0.89 ± 0.26. Work on Q65Y yielded an abundance fitness of -0.149 ± 0.16. Work on Q65T yielded an abundance fitness of -0.032 ± 0.074. In the case of Q65N, the abundance fitness is reported as -0.129 ± 0.16. In the case of Q65R, the abundance fitness is reported as -0.173 ± 0.061. With Q65C the abundance fitness was -0.265 ± 0.11. Q65L gave an abundance fitness of -0.17 ± 0.073. With G51W the abundance fitness was -0.268 ± 0.18.

Source: the Human Domainome abundance scans (Beltran et al. 2025)
